Measured values: publication PMC1964548, “Structural and Functional Analyses of Five Conserved Positively Charged Residues in the L1 and N-Terminal DNA Binding Motifs of Archaeal RadA Protein” (PLoS ONE, 2007)

Biological target: the molecule itself
Assay: crystal structure; hanging drop vapor diffusion; SsoRadA 24 mg/ml in 30 mM Tris-HCl pH 8.0; reservoir 100 mM KCl, 25 mM MgCl2, 15% isopropanol, 50 mM sodium cacodylate pH 6.0; space group P3_(1), 1.93 Å; 3_(1) overwound right-handed filament

B1: Sulfolobus solfataricus RadA (natural protein, UniProt Q55075 1-324, looked up)
chain: MSNEVEQKKNIKTINDLPGISQTVINKLIEAGYSSLETLAVASPQDLSVAAGIPLSTAQKIIKEARDALDIRFKTALEVKKERMNVKKISTGSQALDGLLAGGIETRTMTEFFGEFGSGKTQLCHQLSVNVQLPPEKGGLSGKAVYIDTEGTFRWERIENMAKALGLDIDNVMNNIYYIRAINTDHQIAIVDDLQELVSKDPSIKLIVVDSVTSHFRAEYPGRENLAVRQQKLNKHLHQLTRLAEVYDIAVIITNQVMARPDMFYGDPTVAVGGHTLYHVPGIRIQLKKSRGNRRIARVVDAPHLPEGEVVFALTEEGIRDAEE
notes: RadA of Sulfolobus solfataricus; Forms a helical filament in the crystal (three protomers per turn, 98 Å pitch; three protomers in the asymmetric unit, each belonging to a filament of its own); also called SsoRadA; wild-type SsoRadA; source: expressed and purified as described previously [16]
binding result: binds
